Reference: US20240018502A1
Residue numbers refer to the chain shown, from its start. Names may count otherwise. Each block holds one binder with its values, some of them ahead of it.

Molecular target: plasma purified human complement protein C3 (human) (UniProt P01024)
Test: cell-based or functional assay

Sequence of plasma purified human complement protein C3 (human) (P01024 23-667, chain 1 of 2): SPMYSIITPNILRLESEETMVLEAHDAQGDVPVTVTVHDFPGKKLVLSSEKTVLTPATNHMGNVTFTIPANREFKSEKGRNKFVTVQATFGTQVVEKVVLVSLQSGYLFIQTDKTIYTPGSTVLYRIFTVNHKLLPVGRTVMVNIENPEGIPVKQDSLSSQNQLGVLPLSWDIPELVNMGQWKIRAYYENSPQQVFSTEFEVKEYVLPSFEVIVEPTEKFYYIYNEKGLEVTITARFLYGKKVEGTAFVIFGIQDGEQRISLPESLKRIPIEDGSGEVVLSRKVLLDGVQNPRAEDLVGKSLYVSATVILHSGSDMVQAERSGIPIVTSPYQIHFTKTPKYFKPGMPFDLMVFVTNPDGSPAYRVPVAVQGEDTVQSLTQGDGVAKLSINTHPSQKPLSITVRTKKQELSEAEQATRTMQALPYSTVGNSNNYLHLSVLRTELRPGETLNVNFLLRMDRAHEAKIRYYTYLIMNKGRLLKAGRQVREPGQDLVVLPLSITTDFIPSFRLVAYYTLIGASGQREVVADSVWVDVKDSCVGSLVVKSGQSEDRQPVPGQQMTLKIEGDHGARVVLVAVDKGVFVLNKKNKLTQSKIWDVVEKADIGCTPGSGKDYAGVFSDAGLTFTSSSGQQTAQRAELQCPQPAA
Sequence of plasma purified human complement protein C3 (human) (P01024 672-1663, chain 2 of 2): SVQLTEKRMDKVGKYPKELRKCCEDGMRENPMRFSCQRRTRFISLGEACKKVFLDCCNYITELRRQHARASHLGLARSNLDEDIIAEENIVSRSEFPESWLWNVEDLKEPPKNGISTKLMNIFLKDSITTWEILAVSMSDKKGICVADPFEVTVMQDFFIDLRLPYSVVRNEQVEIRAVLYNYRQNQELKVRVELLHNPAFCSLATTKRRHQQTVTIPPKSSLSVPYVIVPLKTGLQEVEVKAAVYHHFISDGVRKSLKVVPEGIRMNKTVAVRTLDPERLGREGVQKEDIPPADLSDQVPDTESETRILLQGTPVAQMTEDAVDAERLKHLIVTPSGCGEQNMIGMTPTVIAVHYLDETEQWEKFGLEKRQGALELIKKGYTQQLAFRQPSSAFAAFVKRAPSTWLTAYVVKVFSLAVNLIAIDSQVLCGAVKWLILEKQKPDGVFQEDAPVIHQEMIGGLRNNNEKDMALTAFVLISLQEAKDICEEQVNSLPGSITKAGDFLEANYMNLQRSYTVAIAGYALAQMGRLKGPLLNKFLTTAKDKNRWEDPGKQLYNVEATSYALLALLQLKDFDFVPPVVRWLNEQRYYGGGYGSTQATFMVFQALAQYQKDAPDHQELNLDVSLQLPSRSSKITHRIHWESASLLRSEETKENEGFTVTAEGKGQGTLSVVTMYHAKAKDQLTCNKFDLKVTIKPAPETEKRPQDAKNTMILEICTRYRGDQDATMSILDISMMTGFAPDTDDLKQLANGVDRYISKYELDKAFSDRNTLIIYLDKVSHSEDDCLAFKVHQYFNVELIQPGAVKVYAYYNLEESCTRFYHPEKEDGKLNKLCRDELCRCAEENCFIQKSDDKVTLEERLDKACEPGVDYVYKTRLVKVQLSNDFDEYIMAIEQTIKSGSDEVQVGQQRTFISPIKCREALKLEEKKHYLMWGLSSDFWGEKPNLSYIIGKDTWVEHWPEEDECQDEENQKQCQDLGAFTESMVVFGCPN

EC50 of hC3 cleavage: 0.00322 µM
B1: MTSP-1 Q38R/I41S/D60bY/F60eD/ins97aV/F97D/T98P/F99L/C122S/G151N/Q175M/Q192A (enzyme)
chain: VVGGTDADEGEWPWQVSLHALGRGHSCGASLISPNWLVSAAHCYIDYRGDRYSDPTQWTAFLGLHDQSQRSAPGVQERRLKRIISHPFFNDDVPLDYDIALLELEKPAEYSSMVRPISLPDASHVFPAGKAIWVTGWGHTQYGGTNALILQKGEIRVINQTTCENLLPQMITPRMMCVGFLSGGVDSCAGDSGGPLSSVEADGRIFQAGVVSWGDGCAQRNKPGVYTRLPLFRDWIKENTGV

EC50 of hC3 cleavage: 0.0202 µM
B2: MTSP-1 Q38L/I41T/D60bA/F60eL/ins97aV/F97D/T98P/F99L/C122S/G151H/Q175M/Q192T (enzyme)
chain: B1 chain with R23L, S26T, Y47A, D50L, N146H, A189T

EC50 of hC3 cleavage: 0.0329 µM
B3: MTSP-1 Q38R/I41S/D60bH/F60eI/ins97aE/F97T/T98G/F99L/C122S/G151N/Q175L/Q192E (enzyme)
chain: B1 chain with Y47H, D50I, D92T, V93E, P94G, M170L, A189E

EC50 of hC3 cleavage: 0.0273 µM
B4: MTSP-1 Q38R/I41S/D60bH/F60eI/ins97aE/F97T/T98G/F99L/C122S/Q175L/Q192E (enzyme)
chain: B1 chain with Y47H, D50I, D92T, V93E, P94G, N146G, M170L, A189E

EC50 of hC3 cleavage: 0.00593 µM
B5: MTSP-1 Q38H/I41A/F60eA/Y60gW/ins97aE/F97T/T98G/F99L/C122S/Q175L/Q192E (enzyme)
chain: VVGGTDADEGEWPWQVSLHALGHGHACGASLISPNWLVSAAHCYIDDRGARWSDPTQWTAFLGLHDQSQRSAPGVQERRLKRIISHPFFNDTEGLDYDIALLELEKPAEYSSMVRPISLPDASHVFPAGKAIWVTGWGHTQYGGTGALILQKGEIRVINQTTCENLLPQLITPRMMCVGFLSGGVDSCEGDSGGPLSSVEADGRIFQAGVVSWGDGCAQRNKPGVYTRLPLFRDWIKENTGV

EC50 of hC3 cleavage: 0.0115 µM
B6: MTSP-1 Q38E/I41S/D60bH/F60eI/ins97aE/F97T/T98G/F99L/C122S/G151N/Q175L/Q192V (enzyme)
chain: B5 chain with H23E, A26S, D47H, A50I, W52Y, G146N, E189V

EC50 of hC3 cleavage: 0.0237 µM
B7: MTSP-1 Q38L/I41T/D60bR/F60eL/Y60gM/F97T/ins97aE/T98G/F99L/C122S/G151N/Q175L/Q192G (enzyme)
chain: B5 chain with H23L, A26T, D47R, A50L, W52M, G146N, E189G

EC50 of hC3 cleavage: 0.00774 µM
B8: MTSP-1 Q38H/I41A/D60bV/F60eR/Y60gW/ins97aE/F97T/T98G/F99L/C122S/G151N/Q175L/Q192D (enzyme)
chain: B5 chain with D47V, A50R, G146N, E189D

EC50 of hC3 cleavage: 0.00228 µM
B9: MTSP-1 Q38H/I41A/D60bT/F60eH/Y60gW/ins97aE/F97T/T98G/F99L/C122S/Q175L/Q192D (enzyme)
chain: B5 chain with D47T, A50H, E189D

EC50 of hC3 cleavage: 0.0185 µM
B10: MTSP-1 Q38V/I41S/D60bT/F60eT/F97D/ins97aV/T98P/F99L/C122S/G151N/Q175H/Q192S (enzyme)
chain: B1 chain with R23V, Y47T, D50T, M170H, A189S

EC50 of hC3 cleavage: 0.0678 µM
B11: MTSP-1 Q38H/I41S/D60bT/F60eS/ins97aV/F97D/T98P/F99L/C122S/G151H/Q175A/Q192D (enzyme)
chain: B1 chain with R23H, Y47T, D50S, N146H, M170A, A189D

EC50 of hC3 cleavage: 0.00196 µM
B12: MTSP-1 Q38F/I41S/D60bF/F60eR/Y60gF/F97T/ins97aE/T98G/F99L/C122S/G151N/Q175L/Q192V (enzyme)
chain: B5 chain with H23F, A26S, D47F, A50R, W52F, G146N, E189V

EC50 of hC3 cleavage: 0.0431 µM
B13: MTSP-1 Q38W/I41S/D60bG/F60eI/F97D/ins97aV/T98P/F99L/C122S/G151N/Q175A/Q192D (enzyme)
chain: B1 chain with R23W, Y47G, D50I, M170A, A189D

EC50 of hC3 cleavage: 0.0031 µM
B14: MTSP-1 I41T/D60bW/F60eH/F97D/ins97aV/T98P/F99L/C122S/G151N/Q175L/Q192G (enzyme)
chain: B1 chain with R23Q, S26T, Y47W, D50H, M170L, A189G

EC50 of hC3 cleavage: 0.0142 µM
B15: MTSP-1 Q38H/I41A/D60bA/F60eR/ins97aE/F97T/T98G/F99L/C122S/G151N/Q175L/Q192E (enzyme)
chain: B5 chain with D47A, A50R, W52Y, G146N

EC50 of hC3 cleavage: 0.00157 µM
B16: MTSP-1 Q38H/I41S/D60bF/F60eV/F97D/ins97aV/T98P/F99L/C122S/G151N/Q175L/Q192A (enzyme)
chain: B1 chain with R23H, Y47F, D50V, M170L

EC50 of hC3 cleavage: 0.00835 µM
B17: MTSP-1 Q38H/I41S/D60bS/F60eR/Y60gW/F97T/ins97aE/T98G/F99L/C122S/Q175L/Q192E (enzyme)
chain: B5 chain with A26S, D47S, A50R

EC50 of hC3 cleavage: 0.105 µM
B18: MTSP-1 Q38R/I41E/ins97aE/F97T/T98G/F99L/C122S/G151N/Q175L/Q192T (enzyme)
chain: B5 chain with H23R, A26E, A50F, W52Y, G146N, E189T

EC50 of hC3 cleavage: 0.0204 µM
B19: MTSP-1 Q38E/I41S/D60bV/F60eK/F97T/ins97aE/T98G/F99L/C122S/Q175L/Q192I (enzyme)
chain: B5 chain with H23E, A26S, D47V, A50K, W52Y, E189I

EC50 of hC3 cleavage: 0.00626 µM
B20: MTSP-1 Q38S/I41S/F60eR/F97T/ins97aE/T98G/F99L/C122S/G151N/Q175L/Q192S (enzyme)
chain: B5 chain with H23S, A26S, A50R, W52Y, G146N, E189S

EC50 of hC3 cleavage: 0.012 µM
B21: MTSP-1 Q38H/I41A/D60bA/F60eR/F97T/ins97aE/T98G/F99L/C122S/Q175L/Q192E (enzyme)
chain: B5 chain with D47A, A50R, W52Y

EC50 of hC3 cleavage: 0.0157 µM
B22: MTSP-1 Q38T/I41S/D60bV/F60eR/ins97aV/F97D/T98P/F99L/C122S/G151N/Q175R/Q192V (enzyme)
chain: B1 chain with R23T, Y47V, D50R, M170R, A189V

EC50 of hC3 cleavage: 0.068 µM
B23: MTSP-1 Q38W/I41A/ins97aV/F97D/T98P/F99L/C122S/G151T/Q175S/Q192D (enzyme)
chain: B1 chain with R23W, S26A, Y47D, D50F, N146T, M170S, A189D

EC50 of hC3 cleavage: 0.00153 µM
B24: MTSP-1 Q38Y/I41A/D60bL/F60eQ/ins97aV/F97D/T98P/F99L/C122S/G151N/Q175M/Q192A (enzyme)
chain: B1 chain with R23Y, S26A, Y47L, D50Q

EC50 of hC3 cleavage: 0.00573 µM
B25: MTSP-1 Q38L/I41A/D60bH/F60eT/ins97aV/F97D/T98P/F99L/C122S/G151Q/Q175A/Q192G (enzyme)
chain: B1 chain with R23L, S26A, Y47H, D50T, N146Q, M170A, A189G

EC50 of hC3 cleavage: 0.00595 µM
B26: MTSP-1 Q38H/I41S/D60bV/F60eQ/Y60gF/ins97aE/F97T/T98G/F99L/C122S/Q175L/Q192I (enzyme)
chain: VVGGTDADEGEWPWQVSLHALGHGHSCGASLISPNWLVSAAHCYIDVRGQRFSDPTQWTAFLGLHDQSQRSAPGVQERRLKRIISHPFFNDTEGLDYDIALLELEKPAEYSSMVRPSLPDASHVFPAGKAIWVTGWGHTQYGGTGALILQKGEIRVINQTTCENLLPQLITPRMMCVGFLSGGVDSCIGDSGGPLSSVEADGRIFQAGVVSWGDGCAQRNKPGVYTRLPLFRDWIKENTGV
